Assay results reported in US20210380703A1 (RIGEL PHARMACEUTICALS, published 2021).
Substitutions are numbered along the chain they refer to.

B1: 374_A05 (antibody, V domains shown)
VH: EVQLLESGGGLVQPGGSLRLSCAASGFTFSDYGMNWVRQAPGKGLEWVANINYNGGYKGYADSVKGRFTISRDNSKNTLYLQMNSLRAEDTAVYYCARGATWHDTHLDYWGQGTLVTVSS
VL: DIQMTQSPSSLSASVGDRVTITCRASQSIVRYLNWYQQKPGKAPKLVIYAATSLASGVPSRFSGSGSGTDFTLTISSLQPEDFATYYCQQSYELPLTFGGGTKVEIK
B2: 368_H10 (antibody, V domains shown)
VH: B1 VH with D31S, G33S, A49S, N50S, G55S, G99S
VL: B1 VL with R31S, L33V, A51V, L94T
notes: VH and VL only
B3: 374_C03 (antibody, V domains shown)
VH: EVQLLESGGGLVQPGGSLRLSCAASGFTFDSYSMNWVRQAPGKGLEWVSGINYNSGYTSYADSVKGRFTISRDNSKNTLYLQMNSLRAEDTAVYYCARSANWHDTALDYWGQGTLVTVSS
VL: B1 VL with V30L, R31T, V47L, L54R, E93D, L94S
B4: 368_D10 (antibody, V domains shown)
VH: B3 VH with S33G, S49A, N101T
VL: B1 VL with V30L, R31S, L54R, E93D, L94S
B5: 374_E03 (antibody, V domains shown)
VH: B1 VH with D31S, G33S, A49S, G55S, G99S
VL: B1 VL with V30L, R31T, L33V, E93D, L94T
notes: VH and VL only
B6: 374_C07 (antibody, V domains shown)
VH: B3 VH with G50N, S55G, N101T, A106H
VL: B1 VL with V30I, R31S, V47L, L54R, Y92D
notes: VH and VL only
B7: 373_D09 (antibody, V domains shown)
VH: B3 VH with N101T, A106H
VL: B1 VL with V30L, R31T, L54R, A55H, L94N
notes: VH and VL only
B8: 374_F09 (antibody, V domains shown)
VH: B3 VH with D30S, S33G, G50S, N101T, A106H
VL: B1 VL with V30S, R31S, L33V, V47L, L54R, E93S, L94T
notes: VH and VL only
B9: 376_C07 (antibody, V domains shown)
VH: B3 VH with D30S, T58K, S59G, N101T, A106H
VL: B1 VL with V30L, R31S, L33V, V47L, L54R, A55H, E93D
notes: VH and VL only
B10: 374_D11 (antibody, V domains shown)
VH: B3 VH with S33G, G50N, S59G, N101T, A106H
VL: B1 VL with V30L, R31T, V47L, L54R, L94T
notes: VH and VL only
B11: 374_E04 (antibody, V domains shown)
VH: B3 VH with D30S, T58K, N101T, A106H
VL: B1 VL with V30L, R31S, V47L, A51V, L54R, E93N, L94N
notes: VH and VL only
B12: 373_E08 (antibody, V domains shown)
VH: B3 VH with S33G, N101T, A106H
VL: B1 VL with R31S, L33V, V47L, A51V, L54R, L94S
notes: VH and VL only
B13: 374_B11 (antibody, V domains shown)
VH: B3 VH with D30S, T58K, N101T, A106H
VL: B1 VL with V30L, R31T, L33V, L54R, E93D
notes: VH and VL only
B14: 374_A08 (antibody, V domains shown)
VH: B3 VH with G50N, N101T, A106H
VL: B1 VL with R31T, V47L, E93D
notes: VH and VL only
B15: 369_D02 (antibody, V domains shown)
VH: B3 VH with D30S, S31D, G50N, S59G
VL: B1 VL with V30L, R31S, A51V, L54R, E93D, L94T
B16: 376_E09 (antibody, V domains shown)
VH: B3 VH with T58K, N101T, A106H
VL: B1 VL with V30L, R31T, V47L, L54R, A55H, E93D, L94T
notes: VH and VL only
B17: 373_F02 (antibody, V domains shown)
VH: B3 VH with T58K, N101T, A106H
VL: B1 VL with V30L, R31T, V47L, L54R, E93D, L94T
notes: VH and VL only
B18: 375_G12 (antibody, V domains shown)
VH: B3 VH with S33G, N35H, G50S, S55G, N101T, A106H
VL: B1 VL with R31S, L33V, V47L, L54R, A55H, E93D, L94T
notes: VH and VL only
B19: 373_D02 (antibody, V domains shown)
VH: B1 VH with D31S, G33S, A49S, G55S, G99S
VL: B1 VL with V30L, R31S, V47L, E93D
notes: VH and VL only
B20: 376_A01 (antibody, V domains shown)
VH: B1 VH with S30D, D31S, A49S, K58T, G99S
VL: B1 VL with R31S, V47L, L54R, E93S, L94T
notes: VH and VL only
B21: 376_G11 (antibody, V domains shown)
VH: B3 VH with D30S, T58K, N101T, A106H
VL: B1 VL with R31T, L33V, E93N
notes: VH and VL only
B22: 365_E05 (antibody, V domains shown)
VH: B3 VH with D30S, S33G, N35H, S49A, S55G
VL: B1 VL with R31S, L33V, V47L, E93D, L94N
B23: 369_F01 (antibody, V domains shown)
VH: B3 VH with D30S, S33G, S55G, T58K
VL: B1 VL with V30L, R31T, L33V, V47L, L54R
B24: 368_F03 (antibody, V domains shown)
VH: B3 VH with S49A, S59G, R98K
VL: B1 VL with V30I, R31S, L54R, A55H, E93D, L94S
B25: 374_G02 (antibody, V domains shown)
VH: B3 VH with N101T, A106H
VL: B1 VL with V30L, R31T, V47L, T52S, A55Q, E93D, L94T
notes: VH and VL only
B26: 376_H08 (antibody, V domains shown)
VH: B1 VH with S30D, D31S, A49S, G99S
VL: B1 VL with V30L, R31T, V47L, L54R, A55H, Y92D, E93S
notes: VH and VL only
B27: 373_H12 (antibody, V domains shown)
VH: B1 VH with G33S, A49S, N50G, G55S, G99S
VL: B1 VL with V30L, R31T, V47L, L54R, E93N, L94S
notes: VH and VL only
B28: 376_G01 (antibody, V domains shown)
VH: B3 VH with S31D, T58K, N101T, A106H
VL: B1 VL with V30L, R31S, L33V, A51V, L54R
notes: VH and VL only
B29: 375_G10 (antibody, V domains shown)
VH: B1 VH with D31S, A49S, N50S, G59S, G99S
VL: B1 VL with R31T, L54R, A55H, E93D, L94T
notes: VH and VL only
B30: 374_G01 (antibody, V domains shown)
VH: B3 VH with G50N, N101T, A106H
VL: B1 VL with V30L, R31T, L33V, V47L, A51T, L54R, A55H, E93N
notes: VH and VL only
B31: 365_E07 (antibody, V domains shown)
VH: B3 VH with S33G, N35H, R98K, A106H
VL: B1 VL with V30L, R31S, V47L, L54R, E93D, L94N
B32: 374_G12 (antibody, V domains shown)
VH: B1 VH with S30D, A49S, N50S, G59S, G99S
VL: B1 VL with V30L, R31T, L33V, E93N, L94S
notes: VH and VL only
B33: 375_B10 (antibody, V domains shown)
VH: B3 VH with N101T, A106H
VL: B1 VL with V30L, R31S, V47L, L54R, A55H, E93D
notes: VH and VL only
B34: 375_F01 (antibody, V domains shown)
VH: B3 VH with D30S, G50S, S59G, N101T, A106H
VL: B1 VL with R31S, L54R, E93D, L94N
notes: VH and VL only
B35: 370_C03 (antibody, V domains shown)
VH: B1 VH with D31S, N50G, G99S, T101N, H106A
VL: B1 VL with V30L, R31T, V47L, A50Y, A51V, S53N, L54R, A55Q, E93S, L94S
B36: 374_E06 (antibody, V domains shown)
VH: B3 VH with G50S, T58K, S59G, N101T, A106H
VL: B1 VL with V30L, R31S, V47L, L54R, E93D
notes: VH and VL only
B37: 373_A07 (antibody, V domains shown)
VH: B1 VH with D31S, G33S, A49S, K58T, G99S
VL: B1 VL with V30L, R31T, L33V, V47L, L54R, Y92D, E93N
notes: VH and VL only

How the values were obtained:
[1] = molecular target: ACVR2A on primary human myotubes (human, UniProt P27037 20-513); experiment: cell-based or functional assay
ACVR2A on primary human myotubes, sequence (P27037 20-513): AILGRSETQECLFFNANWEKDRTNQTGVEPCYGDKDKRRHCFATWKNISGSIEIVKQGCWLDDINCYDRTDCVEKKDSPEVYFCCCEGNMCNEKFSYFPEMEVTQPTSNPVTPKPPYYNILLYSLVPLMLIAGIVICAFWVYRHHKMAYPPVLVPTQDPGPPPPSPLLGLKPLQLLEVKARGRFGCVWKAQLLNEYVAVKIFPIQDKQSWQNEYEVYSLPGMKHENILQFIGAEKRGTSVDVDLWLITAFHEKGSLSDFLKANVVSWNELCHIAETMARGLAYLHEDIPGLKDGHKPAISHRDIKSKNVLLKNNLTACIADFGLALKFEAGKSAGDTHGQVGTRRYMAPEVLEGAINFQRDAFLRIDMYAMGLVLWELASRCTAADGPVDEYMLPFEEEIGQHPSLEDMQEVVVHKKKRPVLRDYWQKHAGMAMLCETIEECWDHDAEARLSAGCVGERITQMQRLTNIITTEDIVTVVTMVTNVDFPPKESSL

[2] = molecular target: T1, human ACVR2A (human, UniProt P27037 20-135, limits assumed); experiment: ELISA
T1 construct: also called activin receptor, type II A
T1 sequence (P27037 20-135 limits assumed): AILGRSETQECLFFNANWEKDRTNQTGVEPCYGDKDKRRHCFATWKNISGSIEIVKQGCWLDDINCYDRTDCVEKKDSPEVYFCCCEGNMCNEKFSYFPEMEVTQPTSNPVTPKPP
Procedure, shortened: (§1)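 Monoclonal antibodies were first applied to human or mouse ACVR2A, alongside biotinylated goat anti-human kappa light chain (positive control) and human Fc (negative control); binding was then determined by ELISA.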

[3] = molecular target: mouse ACVR2A (mouse, UniProt P27038 20-135, limits assumed); experiment: ELISA
mouse ACVR2A, sequence (P27038 20-135 limits assumed): as the sequence (P27037 20-135 limits assumed) above, with K20R, V73I counted along it
Procedure, shortened: as §1

[4] = molecular target: T2, biotinylated goat anti-human kappa light chain; experiment: ELISA, positive control; note: test concentration or dose not given here
T2 construct: Positive control of the ELISA
Procedure, shortened: as §1
Throughout, for optical density: test concentration or dose not given here.

Binder | Phospho-SMAD3 Human Skeletal Muscle GDF8 [1] | optical density [2] [OD] | optical density [3] [OD] | optical density [4] [OD]
B1 | 0.0081 |  |  | 
B2 |  | 2.28 | 2.16 | 3.36
B3 | 0.0094 |  |  | 
B4 | 0.0601 |  |  | 
B5 |  | 3.72 | 3.79 | 3.13
B6 |  | 3.65 | 3.7 | 3.22
B7 |  | 3.46 | 3.5 | 3.04
B8 |  | 3.53 | 3.62 | 3.14
B9 |  | 3.7 | 3.71 | 3.42
B10 |  | 3.64 | 3.58 | 2.9
B11 |  | 3.74 | 3.72 | 3.19
B12 |  | 2.97 | 3.23 | 3.2
B13 |  | 3.69 | 3.66 | 3.17
B14 |  | 3.59 | 3.67 | 2.94
B15 | 0.0135 |  |  | 
B16 |  | 3.74 | 3.76 | 3.48
B17 |  | 3.62 | 3.6 | 3.15
B18 |  | 3.36 | 3.29 | 3.3
B19 |  | 3.73 | 3.65 | 3.19

Binder | Phospho-SMAD3 Human Skeletal Muscle GDF8 [1] | optical density [2] [OD] | optical density [3] [OD] | optical density [4] [OD]
B20 |  | 3.24 | 3.66 | 2.98
B21 |  | 3.65 | 3.6 | 3.54
B22 | 0.244 |  |  | 
B23 | 0.0317 |  |  | 
B24 | 0.812 |  |  | 
B25 |  | 3.52 | 3.54 | 3.17
B26 |  | 3.31 | 3.28 | 3.53
B27 |  | 3.06 | 2.98 | 3
B28 |  | 3.34 | 3.66 | 3.18
B29 |  | 3.48 | 3.64 | 3.3
B30 |  | 3.34 | 3.6 | 2.92
B31 | 0.518 |  |  | 
B32 |  | 3.19 | 3.21 | 3.15
B33 |  | 3.65 | 3.74 | 3.14
B34 |  | 3.16 | 3.46 | 2.96
B35 | 0.0029 |  |  | 
B36 |  | 3.84 | 3.75 | 3.25
B37 |  | 3.52 | 3.59 | 3.11
